According to patent publication US6960454B2, “Methods for making and using a thermophilic enzyme as a β-glycosidase” (Director-General of Agency of Industrial Science and …, priority 1998, dated 2005):
Like-named read-outs stand apart in the source and are kept apart here.

Assays:
[1] = target: T1, Sβ-gly from S. solfataricus strain MT-4 (Saccharolobus solfataricus, UniProt P22498); conditions: cited from earlier work; for Km / kcat: Sβ-gly, 75° C. and pH 6.5; for efficiency of hydrolysis by Sβ-gly: in words
[2] = target: his-tagged BGPh from P. horikoshii (His-BGPh) (Pyrococcus horikoshii, UniProt O58104); assay type: biochemical; conditions: for efficiency of hydrolysis by His-BGPh: in words; for kcat: His-BGPh, 90° C. and pH 6.0
Procedure: (§1) The enzyme reactions were carried out at 90° C. in a solution […] containing the substrate and the purified His-BGPh in 50 mM phosphate buffer (pH 6) with 0.1% Triton X-100 and 0.3 M NaCl. For the hydrolysis of p-nitrophenyl (p-Nph) β-D-saccharides, the reaction was terminated by the addition of 1 M Na2CO3 (1 ml), then centrifuged at 15,000×g for 10 min. The concentration of the p-Nph group in the supernatant was quantified by measuring the absorbance at 400 nm. For the hydrolysis of β-D-glucoside, the released glucose was analyzed with a Glucose C-II Test kit (Wako Pure Chemicals, Japan). Initial velocities were obtained directly from the initial slopes of the time course plots. The Km and kcat values were calculated using the Michaelis-Menten equation and the least squares method (12). The subsite affinity for a long alkyl chain was determined using the method reported previously (13-15) on the basis of the subsite theory (16).

[3] = target: T1, Sβ-gly from S. solfataricus strain MT-4; test: Kinetic parameters of substrate hydrolysis by Sβ-gly (from references 7, 21); assay type: biochemical, Sulfolobus solfataricus
[4] = Heat treatment of the purified enzyme at 95° C.; assay type: physicochemical; conditions: 50 mM phosphate buffer (pH 6.0), 250 mM NaCl, 95° C. for 1 hour
Procedure: When the enzyme is treated in 50 mM phosphate buffer (pH 6.0) containing 250 mM NaCl at 95° C. for 1 hour, its activity is retained at the level of 80% based on the initial level. The enzyme has an optimum pH of pH 6.0 and an optimum temperature of 100° C. or higher in terms of the enzymatic activity.

[5] = Optimum pH; assay type: biochemical; conditions: p-Nph-β-D-Glcp, 90° C.
Procedure: The pH of the reaction mixtures ranged from 3.9 to 5.5 in sodium acetate buffer and from 5.5 to 7.99 in phosphate buffer. Optical density measurements at A405 were performed as described for the enzyme assays.

[6] = substrate: OCc1ccccc1O[C@@H]1O[C@H](CO)[C@@H](O)[C@H](O)[C@H]1O; test: purified protein, by the assay type; conditions: other: His-BGPh, 90° C. and pH 6.0
[7] = substrate: CO[C@@H]1O[C@H](CO)[C@@H](O)[C@H](O)[C@H]1O; test: purified protein, by the assay type; assay type: biochemical; conditions: other: His-BGPh, 90° C. and pH 6.0
Procedure: (§2) The enzyme reactions were carried out at 90° C. in a solution (200 ml) containing the substrate and the purified His-BGPh in 50 mM phosphate buffer (pH 6) with 0.1% Triton X-100 and 0.3 M NaCl. For the hydrolysis of p-nitrophenyl (p-Nph) β-D-saccharides, the reaction was terminated by the addition of 1 M Na2CO3 (1 ml), then centrifuged at 15,000×g for 10 min. The concentration of the p-Nph group in the supernatant was quantified by measuring the absorbance at 400 nm. For the hydrolysis of β-D-glucoside, the released glucose was analyzed with a Glucose C-II Test kit (Wako Pure Chemicals, Japan). Initial velocities were obtained directly from the initial slopes of the time course plots. The Km and kcat values were calculated using the Michaelis-Menten equation and the least squares method (12). The subsite affinity for a long alkyl chain was determined using the method reported previously (13-15) on the basis of the subsite theory (16).

[8] = substrate: CCCCCCCCCCO[C@@H]1O[C@H](CO)[C@@H](O)[C@H](O)[C@H]1O; test: purified protein, by the assay type; assay type: biochemical; conditions: other: His-BGPh, 90° C. and pH 6.0
Procedure: as §2

[9] = substrate: O=[N+]([O-])c1ccc(O[C@@H]2O[C@H](CO)[C@H](O)[C@H](O)[C@H]2O)cc1; test: purified protein, by the assay type; assay type: biochemical; conditions: other: His-BGPh, 90° C. and pH 6.0
Procedure: as §2

[10] = substrate: CCCCCCCCCCCCO[C@@H]1O[C@H](CO)[C@@H](O)[C@H](O)[C@H]1O; test: purified protein, by the assay type; assay type: biochemical; conditions: other: His-BGPh, 90° C. and pH 6.0
Procedure: as §2

[11] = substrate: CCCCCCO[C@@H]1O[C@H](CO)[C@@H](O)[C@H](O)[C@H]1O; test: purified protein, by the assay type; assay type: biochemical; conditions: other: His-BGPh, 90° C. and pH 6.0
Procedure: as §2

[12] = substrate: CCCCCO[C@@H]1O[C@H](CO)[C@@H](O)[C@H](O)[C@H]1O; test: purified protein, by the assay type; assay type: biochemical; conditions: other: His-BGPh, 90° C. and pH 6.0
Procedure: as §2

[13] = substrate: CCCCCCCCCCCO[C@@H]1O[C@H](CO)[C@@H](O)[C@H](O)[C@H]1O; test: purified protein, by the assay type; assay type: biochemical; conditions: other: His-BGPh, 90° C. and pH 6.0
Procedure: as §2

[14] = substrate: CCCCCCCCCO[C@@H]1O[C@H](CO)[C@@H](O)[C@H](O)[C@H]1O; test: purified protein, by the assay type; assay type: biochemical; conditions: other: His-BGPh, 90° C. and pH 6.0
Procedure: as §2

[15] = substrate: O=[N+]([O-])c1ccc(O[C@@H]2O[C@H](CO)[C@@H](O)[C@H](O)[C@@H]2O)cc1; test: purified protein, by the assay type; assay type: biochemical; conditions: other: His-BGPh, 90° C. and pH 6.0
Procedure: as §2

[16] = substrate: CCCCCCCCO[C@@H]1O[C@H](CO)[C@@H](O)[C@H](O)[C@H]1O; test: purified protein, by the assay type; assay type: biochemical; conditions: other: His-BGPh, 90° C. and pH 6.0
Procedure: as §2

[17] = substrate: O=[N+]([O-])c1ccc(O[C@@H]2OC[C@@H](O)[C@H](O)[C@H]2O)cc1; test: purified protein, by the assay type; assay type: biochemical; conditions: other: His-BGPh, 90° C. and pH 6.0
Procedure: as §2

[18] = substrate: O=[N+]([O-])c1ccc(O[C@@H]2O[C@H](CO)[C@@H](O)[C@H](O)[C@H]2O)cc1; test: purified protein, by the assay type; assay type: biochemical; conditions: other: His-BGPh, 90° C. and pH 6.0
Procedure: as §2

[19] = Subsite affinity of BGPh for a long alkyl chain; assay type: biochemical; conditions: from kcat/Km of n-Dodecyl- vs Methyl-β-D-Glcp
Procedure: as §1

[20] = Optimum temperature; assay type: biochemical; conditions: p-Nph-β-D-Glcp; listed as purified enzyme
Procedure: The enzyme reactions were carried out in duplicate at temperatures ranging from 50° C. to 100° C. for 30 min. Optical density measurements at A405 were performed as described for the enzyme assays.

T1 sequence (P22498 whole entry N62M/R140P/N205M/N208M/A235H/V319M/K445F/G469C): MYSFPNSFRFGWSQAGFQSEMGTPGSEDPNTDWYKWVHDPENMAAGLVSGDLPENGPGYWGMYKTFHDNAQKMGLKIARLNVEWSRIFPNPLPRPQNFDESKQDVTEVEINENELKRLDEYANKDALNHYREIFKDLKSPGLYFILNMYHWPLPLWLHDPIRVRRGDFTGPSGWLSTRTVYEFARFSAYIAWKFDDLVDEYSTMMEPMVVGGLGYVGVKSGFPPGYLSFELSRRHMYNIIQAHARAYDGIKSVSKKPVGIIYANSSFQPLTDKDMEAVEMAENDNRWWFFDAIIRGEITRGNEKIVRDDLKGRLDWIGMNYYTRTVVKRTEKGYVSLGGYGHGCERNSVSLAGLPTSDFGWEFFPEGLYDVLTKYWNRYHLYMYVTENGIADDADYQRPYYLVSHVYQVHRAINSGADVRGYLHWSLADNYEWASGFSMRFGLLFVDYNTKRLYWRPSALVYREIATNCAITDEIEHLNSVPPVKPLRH

## CCCCCO[C@@H]1O[C@H](CO)[C@@H](O)[C@H](O)[C@H]1O [n-Amyl-β-D-Glcp]
[1]
  Km: 1100 µM
  kcat: 256 s⁻¹

## OC[C@H]1O[C@@H](O[C@H]2[C@H](O)[C@@H](O)[C@H](O[C@H]3[C@H](O)[C@@H](O)C(O)O[C@@H]3CO)O[C@@H]2CO)[C@H](O)[C@@H](O)[C@@H]1O (some centres unmarked) [Cellotriose]
[2]
  efficiency of hydrolysis by His-BGPh: low efficiency
[1]
  kcat: 197 s⁻¹
  efficiency of hydrolysis by Sβ-gly: high efficiency
[1]; read-out: Km
  Km: 3000 µM

## CCCCCCO[C@@H]1O[C@H](CO)[C@@H](O)[C@H](O)[C@H]1O [n-Hexyl-β-D-Glcp]
[1]
  Km: 1000 µM
  kcat: 263 s⁻¹

## OC[C@H]1O[C@@H](OC[C@H]2O[C@@H](O)[C@H](O)[C@@H](O)[C@@H]2O)[C@H](O)[C@@H](O)[C@@H]1O [β-Gentiobiose]
[1]
  kcat: 1360 s⁻¹
[1]; read-out: Km
  Km: 100000 µM

## OC[C@H]1O[C@@H](O[C@H]2[C@H](O)[C@@H](CO)OC(O)[C@@H]2O)[C@H](O)[C@@H](O)[C@@H]1O (some centres unmarked) [Laminaribiose]
[2]
  kcat: 184 s⁻¹
[1]
  Km: 1000 µM
  kcat: 908 s⁻¹

## CCCCCCCCO[C@@H]1O[C@H](CO)[C@@H](O)[C@H](O)[C@H]1O [n-Octyl-β-D-Glcp]
[3]
  kcat/Km relative to that for laminaribiose: 0.48 fold
  kcat/Km relative to that for p-Nph-β-D-Glcp: 0.4 fold
[1]
  Km: 700 µM
  kcat: 313 s⁻¹

## OC[C@H]1O[C@@H](O[C@H]2[C@H](O)[C@@H](O)[C@H](O[C@H]3[C@H](O)[C@@H](O)[C@H](O[C@H]4[C@H](O)[C@@H](O)C(O)O[C@@H]4CO)O[C@@H]3CO)O[C@@H]2CO)[C@H](O)[C@@H](O)[C@@H]1O (some centres unmarked) [Cellotetraose]
[2]
  efficiency of hydrolysis by His-BGPh: low efficiency
[1]
  kcat: 584 s⁻¹
  efficiency of hydrolysis by Sβ-gly: high efficiency
[1]; read-out: Km
  Km: 1700 µM

## OCc1ccccc1O[C@@H]1O[C@H](CO)[C@@H](O)[C@H](O)[C@H]1O [Salicin]
[1]
  Km: 5000 µM
  kcat: 880 s⁻¹

## Cellobiose
[2]
  kcat: 194 s⁻¹
[1]
  Km: 30000 µM
  kcat: 1333 s⁻¹

## O=[N+]([O-])c1ccc(O[C@@H]2O[C@H](CO)[C@@H](O)[C@H](O)[C@H]2O)cc1 [p-Nph-β-D-Glcp, p-nitrophenyl β-D-glucopyranoside]
[1]
  Km: 500 µM
  kcat: 542 s⁻¹

## O=[N+]([O-])c1ccc(O[C@@H]2OC[C@@H](O)[C@H](O)[C@H]2O)cc1 [p-Nph-β-D-Xylp]
[1]
  Km: 4000 µM
  kcat: 284 s⁻¹

## O=[N+]([O-])c1ccc(O[C@@H]2O[C@H](CO)[C@H](O)[C@H](O)[C@H]2O)cc1 [p-Nph-β-D-Galp]
[1]
  Km: 4700 µM
  kcat: 1020 s⁻¹

B1: his-tagged BGPh from P. horikoshii (His-BGPh) (Pyrococcus horikoshii OT3) (protein)
chain: MPLKFPEMFLFGTATSSHQIEGNNRWNDWWYYEQIGKLPYRSGKACNHWELYRDDIQLMTSLGYNAYRFSIEWSRLFPEENKFNEDAFMKYREIIDLLLTRGITPLVTLHHFTSPLWFMKKGGFLREENLKHWEKYIEKVAELLEKVKLVATFNEPMVYVMMGYLTAYWPPFIRSPFKAFKVAANLLKAHAIAYELLHGKFKVGIVKNIPIILPASDKERDRKAAEKADNLFNWHFLDAIWSGKYRGVFKTYRIPQSDADFIGVNYYTASEVRHTWNPLKFFFEVKLADISERKTQMGWSVYPKGIYMALKKASRYGRPLYITENGIATLDDEWRVEFIIQHLQYVHKAIEDGLDVRGYFYWSFMDNYEWKEGFGPRFGLVEVDYQTFERRPRKSAYVYGEIARSKEIKDELLKRYGLPELQL
[4]
  activity retained based on the initial level: 80%
[5]
  optimum pH: 6.0
[6]
  Km: 1960 µM
  kcat: 44 s⁻¹
  kcat/Km: 22200 M⁻¹ s⁻¹
[7]
  Km: 40740 µM
  kcat: 35 s⁻¹
  kcat/Km: 850 M⁻¹ s⁻¹
[8]
  Km: 80 µM
  kcat: 37 s⁻¹
  kcat/Km: 469620 M⁻¹ s⁻¹
[9]
  Km: 1300 µM
  kcat: 123 s⁻¹
  kcat/Km: 94340 M⁻¹ s⁻¹
[10]
  Km: 30 µM
  kcat: 36 s⁻¹
  kcat/Km: 1.1529e+06 M⁻¹ s⁻¹
[11]
  Km: 540 µM
  kcat: 33 s⁻¹
  kcat/Km: 60280 M⁻¹ s⁻¹
[12]
  Km: 2020 µM
  kcat: 31 s⁻¹
  kcat/Km: 15110 M⁻¹ s⁻¹
[13]
  Km: 50 µM
  kcat: 43 s⁻¹
  kcat/Km: 944370 M⁻¹ s⁻¹
[14]
  Km: 80 µM
  kcat: 39 s⁻¹
  kcat/Km: 471570 M⁻¹ s⁻¹
[15]
  kcat: 2 s⁻¹
  kcat/Km: 14600 M⁻¹ s⁻¹
[16]
  Km: 200 µM
  kcat: 34 s⁻¹
  kcat/Km: 170700 M⁻¹ s⁻¹
[17]
  Km: 100 µM
  kcat: 3 s⁻¹
  kcat/Km: 31830 M⁻¹ s⁻¹
[18]
  Km: 350 µM
  kcat: 79 s⁻¹
  kcat/Km: 225670 M⁻¹ s⁻¹
[19]
  subsite affinity A(C11) to bind a long alkyl chain (C11): 4.26 kcal/mol
[20]
  optimum temperature: ≥ 100 °C
